# Test results reported in publication PMC9986795, “Structural basis of DNA binding by YdaT, a functional equivalent of the CII repressor in the cryptic prophage CP-933P from Escherichia coli O157:H7” (Acta Crystallographica. Section D, Structural Biology, 2023).
# B1: YdaT from the cryptic prophage CP-933P of Escherichia coli O157:H7 (wild-type YdaT) (natural protein)
# chain: KIKHEHIRMAMNVWAHPDGEKVPAAKITKAYFELGMTFPELYDDSHPEALARNTQKIFRWLDKDTPDAVEKMQALLPAIEKAMPPLLVARMRSHSSEYYREIVERRDRLVKDVDDFVASAVVLYDQMNRGGPAGNAVVMH
# notes: YdaT, E. coli O157:H7 prophage CP-933P, open reading frame in pET-28b; also called CP-933P YdaT; full-length protein
# Molecular target: the molecule itself
# Experiment: crystal structure; sitting drop, 0.1 M bis-Tris pH 5.5, 2.0 M ammonium sulfate, 19°C; free YdaT, a tetramer in the asymmetric unit, 2.4 Å
protein,measurement,value
B1,stoichiometry N,4
